Results taken from patent publication CN1930187A.
Changes are numbered by the printed parent chain.

T1: Pep-3, NH2-…-OH (MW 1590 Da) (human)
T1 sequence (peptide): LEEKKGNYVVTDHG

B1: SC-EGFRvIII-XG1-139 (antibody, human IgG1, V domains shown)
VH: EVQVLESGGGLVQPGGSLRLSCAASGFTFSSYAMSWVRQAPGKGLEWVSAISGSGGSTNYADSVKGRFTISRDNSKNTLYLQMNSLRAEDTAVYYCAGSSGWSEYWGQGTLVTVSS
VL: DIQMTQSPSSLSASVGDRVTITCRASQGIRNNLAWYQQKPGKAPKRLIYAASNLQSGVPSRFTGSGSGTEFTLIVSSLQPEDFATYYCLQHHSYPLTSGGGTKVEIK
B2: AB-EGFRvIII-XG1-095 (antibody, human IgG1, V domains shown)
VH: QVQLQESGPFLVKPSQTLSLTCTVSGGSISSGGYYWSWIRQHPGKGLEWIGFIYYRGNTYYNPSLKSRVTISVDTSKNQFSLKLSSVTAADTAVYYCARDGYCSRTGCYGGWFDPWGQGTLVTVSP
VL: DIVMTQTPLSSPVTLGQPASISCRSSQSLIHTDGNIYLSWLQQRPGQPPRLLIYKISNRFSGVPDRFSGSGAGTDFTLKISRVEAEDVGVYYCMQGTQFPITFGQGTRLEIK
B3: SC-EGFRvIII-XG1-123/124 (antibody, human IgG1, V domains shown)
VH: QVQLVESGGGVVQPGRSLRLSCAASGFTLSSYGMHWVRQAPGKGLEWVAVMSYDGSKEDYADSVKGRFTISRDNSENTLYLQMNSLRAEDTAVYYCVSEGYCSSRSCYKYYYYGMDVWGQGTTVTVSS
VL: DIVMTQSPLSLPVTPGEPASISCRSSQSLLYRNGNNYLDWYLQKPGQSPQLLIYLGSNRASGVPDRFSGSGSGTDFTLNISRVEAEDVGHYYCMQALQTPRTFGQGTKVEIK
B4: SC-EGFRvIII-XG1-318 (antibody, human IgG1, V domains shown)
VH: B3 VH with A23V, M51T, E58K, E76K, S103D, R105S
VL: B3 VL with K44R, N79K, H90V
B5: SC-EGFRvIII-XG1-342 (antibody, human IgG1, V domains shown)
VH: B3 VH with A23V, M51T, E58K, E76K, S103D, R105T
VL: B3 VL with K44R, N79K, H90V
B6: SC-EGFRvIII-XG1-211 (antibody, human IgG1, V domains shown)
VH: B3 VH with A23V, M51T, E58K, V64A, E76K, R105S
VL: B3 VL with K44R, N79K, H90V
B7: SC-EGFRvIII-XG1-333 (antibody, human IgG1, V domains shown)
VH: B3 VH with A23V, P41L, M51T, E58K, E76K, S103D, R105T
VL: B3 VL with K44R, N79K, H90V
B8: SC-EGFRvIII-XG2-170 (antibody, human IgG1, V domains shown)
VH: QVQLQQSGPGLVKPSQTLSLTCAISGDSVSSNNAAWNWIRQSPARGLEWLGRTYYRSKWYNDYVVSVKSRITINPDTSKNQFSLQLNSVTPEDTAVYYCVRATAFDYWGQGTLVTVSS
VL: AIVLTQTPLSSPVTLGQPASISCRSSQSLVHRDGNTYLSWLQQRPGQPPRLLIYKISNRFSGVPDRFSGSGAGTDFTLKISRVEPDDVGVYYCMHTTQLPWTFGQGTKVEIK
B9: SC-EGFRvIII-XG2-150 (antibody, human IgG1, V domains shown)
VH: QVQLQQSGPGLVKPSQTLSLTCAISGDSVSSYSSAWNWIRQSPSRGLEWLGRAYHRSRWYYEYAVSVKSRINITPDTSKNQFSLQLNSVTPEDTAVYYCARGSRFDYWGQGTLVTVSS
VL: B8 VL with A1D, L4M, P85A, D86E, V90I, Y92F, L99F, K108R
B10: SC-EGFRvIII-XG1-250 (antibody, human IgG1, V domains shown)
VH: B1 VH with V2G, V4L, L11W, G16E, M83V, A88V
VL: DIQMTQSPSSLSASVGDSVTITCRTSQGIRKNLGWYQQKPGKAPKRLIYAASSLQSGVPSRFSGSGSGTEFTLTISRLQPEDFATYYCLQHHSYPLTFGGGTRVEIR

The binders below were run against T1, Pep-3, NH2-…-OH (MW 1590 Da) (human) (assay: SPR (Biacore 2000), mAb immobilised, pep-3 injected).

Kd	koff	kon	Binder
290 nM	0.00298 s⁻¹	10300 M⁻¹ s⁻¹	B1
66 nM	0.0099 s⁻¹	149000 M⁻¹ s⁻¹	B2

What follows are binders tested against T1, Pep-3, NH2-…-OH (MW 1590 Da) (human) (assay: SPR (Biacore 2000), mAb immobilised, pep-3 injected, 1:1 model).

koff	kon	Binder
0.00298 s⁻¹	10300 M⁻¹ s⁻¹	B1
0.00993 s⁻¹	149000 M⁻¹ s⁻¹	B2

The binders below were run against EGFRvIII-rabbit Fc fusion protein (EGFRvIII-RbFc) (human; rabbit) (UniProt P00533) (assay: ELISA, transfection supernatant titrated on EGFRvIII-Rab Ig Fc coat).

titre, antigen binding (抗原结合) (titre (1:x dilution))	Binder
> 64	B3
64	B4
> 64	B5
> 64	B6
> 64	B7
> 64	B8
> 64	B9
> 64	B10
> 64	B1
